Literature values, collected in PMC11054419.

Key:
TGF-β1 (Homo sapiens) = TGF-β1 (Homo sapiens) (UniProt P01137)
TGF-β3 (Homo sapiens) = TGF-β3 (Homo sapiens) (UniProt P10600)
TGF-β2 (Homo sapiens) = TGF-β2 (Homo sapiens) (UniProt P61812)
TGF-β2 (Homo sapiens), sequence (P61812 303-414): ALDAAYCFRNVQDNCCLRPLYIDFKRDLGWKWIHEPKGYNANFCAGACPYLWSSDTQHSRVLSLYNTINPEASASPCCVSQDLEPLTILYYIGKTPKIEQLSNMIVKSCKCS

TβRIII (betaglycan), sequence (Q03167 21-787): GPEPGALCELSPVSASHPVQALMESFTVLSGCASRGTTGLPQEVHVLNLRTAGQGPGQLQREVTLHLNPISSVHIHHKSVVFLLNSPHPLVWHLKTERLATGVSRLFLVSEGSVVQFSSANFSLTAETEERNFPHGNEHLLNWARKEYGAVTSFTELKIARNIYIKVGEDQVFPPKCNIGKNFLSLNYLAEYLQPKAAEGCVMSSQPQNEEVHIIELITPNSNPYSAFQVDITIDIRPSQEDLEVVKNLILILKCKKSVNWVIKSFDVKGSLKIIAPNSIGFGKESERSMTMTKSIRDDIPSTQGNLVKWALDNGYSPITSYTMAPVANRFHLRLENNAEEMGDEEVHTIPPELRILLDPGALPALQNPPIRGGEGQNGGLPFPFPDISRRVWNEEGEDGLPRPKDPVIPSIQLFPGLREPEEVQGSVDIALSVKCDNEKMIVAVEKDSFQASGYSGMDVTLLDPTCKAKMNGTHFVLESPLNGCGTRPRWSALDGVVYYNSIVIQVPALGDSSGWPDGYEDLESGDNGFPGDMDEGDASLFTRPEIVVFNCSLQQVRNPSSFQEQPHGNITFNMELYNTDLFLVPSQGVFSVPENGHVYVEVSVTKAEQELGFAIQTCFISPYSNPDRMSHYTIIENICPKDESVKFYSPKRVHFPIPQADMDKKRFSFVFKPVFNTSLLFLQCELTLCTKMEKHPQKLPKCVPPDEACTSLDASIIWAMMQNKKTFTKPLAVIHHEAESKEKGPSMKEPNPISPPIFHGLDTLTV
TGF-β1 (Homo sapiens), sequence (P01137 279-390): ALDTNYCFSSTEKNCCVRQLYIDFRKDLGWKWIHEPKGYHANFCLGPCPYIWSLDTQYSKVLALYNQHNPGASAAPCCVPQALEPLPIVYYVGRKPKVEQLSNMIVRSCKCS
TGF-β3 (Homo sapiens), sequence (P10600 301-412): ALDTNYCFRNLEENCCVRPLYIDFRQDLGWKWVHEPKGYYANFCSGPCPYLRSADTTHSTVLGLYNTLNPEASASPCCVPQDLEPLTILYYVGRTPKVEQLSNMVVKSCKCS

Kd (TGF-β1 (Homo sapiens)): 0.1 nM | Kd (TGF-β3 (Homo sapiens)): 0.1 nM | Kd (TGF-β2 (Homo sapiens)): 0.1 nM
Substance: TβRIII (betaglycan) (from UniProt Q03167)
